Measured values taken from publication PMC4388654, “A Humanized Leucine Zipper-TRAIL Hybrid Induces Apoptosis of Tumors both In Vitro and In Vivo” (PLoS ONE, 2015).

Biological target: the molecule itself
Assay: AUC; sedimentation equilibrium; 0.5, 0.17 and 0.06 mg/ml in PBS, 20°C, 18,000 rpm, 24 h; Monomer-Nmer model (HeteroAnalysis); monomer to trimer

B1: ATF7-pII leucine zipper-TRAIL (ligand, human)
chain: VSSIEKKIEEITSQIIQISNEITLIRNEIAQIKQKGSGQRVAAHITGTRGRSNTLSSPNSKNEKALGRKINSWESSRSGHSFLSNLHLRNGELVIHEKGFYYIYSQTYFRFQEEIKENTKNDKQMVQYIYKYTSYPDPILLMKSARNSCWSKDAEYGLYSIYQGGIFELKENDRIFVSVTNEHLIDMDHEASFFGAFLVG
notes: linker between the leucine zipper and TRAIL; Tumor necrosis factor-Related Apoptosis-Inducing Ligand (TRAIL), human, Gln120-Gly281; No tag is stated; the calculated trimer mass of 69.0 kDa fits zipper + linker + TRAIL 120-281 without a tag; also called ATF7-TRAIL; ATF7 leucine zipper-TRAIL; source: P. pastoris (pGAPZα), secreted, purified (Co2+-metal chelating chromatography, 0 to 25 mM imidazole …)
**Q.** For B1, which “stoichiometry N” value is on record?
**A.** Its value is 3.
